Literature values, collected in article PMC3597628.
Read-outs that look alike come from different tables or passages of the source.

Experiments:
[1] = target: (Pro)renin receptor (Homo sapiens) (UniProt O75787)
[2] = target: (Pro)renin receptor (Homo sapiens) (UniProt O75787); remark: listed apart in the source

UniProt O75787, sequence (O75787 17-302): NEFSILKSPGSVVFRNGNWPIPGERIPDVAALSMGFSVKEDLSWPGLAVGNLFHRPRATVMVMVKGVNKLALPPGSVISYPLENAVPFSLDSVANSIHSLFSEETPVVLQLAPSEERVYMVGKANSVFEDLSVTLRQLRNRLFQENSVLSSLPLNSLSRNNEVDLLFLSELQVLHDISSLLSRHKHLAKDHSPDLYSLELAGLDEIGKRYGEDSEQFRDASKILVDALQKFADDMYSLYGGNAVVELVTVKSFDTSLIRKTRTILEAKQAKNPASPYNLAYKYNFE

Kd [1]	Kd [2]	Substance
1.2 nM	–	Prorenin (from UniProt P00797)
–	8.3 nM	Prorenin (from UniProt P08424)
